# pKd: −log10 of the molar value.
# Key:
# [1] = target: CDA-ZnF-KLF1 E321K (mouse) (UniProt P46099); test: EMSA
# WT-ZnF-KLF1 (mouse) = WT-ZnF-KLF1 (mouse) (UniProt P46099); test: EMSA
# Chain of WT-ZnF-KLF1 (mouse) (P46099 275-358): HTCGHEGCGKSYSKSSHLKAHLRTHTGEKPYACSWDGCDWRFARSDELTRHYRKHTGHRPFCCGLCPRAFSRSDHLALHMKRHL
# Chain of CDA-ZnF-KLF1 E321K (mouse) (P46099 275-358 E321K): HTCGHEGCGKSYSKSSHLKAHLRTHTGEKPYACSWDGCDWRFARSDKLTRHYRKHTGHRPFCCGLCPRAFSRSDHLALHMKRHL
substance,measurement,setting,value
beta-globin site,pKd,[1],3.62
same,pKd,WT-ZnF-KLF1 (mouse),6.26

# Reference: doi:10.1101/774158
